Values quoted from earlier work in PMC2939181.

Target: CPT-1 (UniProt P50416)
Assay: FRET

Sequence of UniProt P50416 (P50416 2-773): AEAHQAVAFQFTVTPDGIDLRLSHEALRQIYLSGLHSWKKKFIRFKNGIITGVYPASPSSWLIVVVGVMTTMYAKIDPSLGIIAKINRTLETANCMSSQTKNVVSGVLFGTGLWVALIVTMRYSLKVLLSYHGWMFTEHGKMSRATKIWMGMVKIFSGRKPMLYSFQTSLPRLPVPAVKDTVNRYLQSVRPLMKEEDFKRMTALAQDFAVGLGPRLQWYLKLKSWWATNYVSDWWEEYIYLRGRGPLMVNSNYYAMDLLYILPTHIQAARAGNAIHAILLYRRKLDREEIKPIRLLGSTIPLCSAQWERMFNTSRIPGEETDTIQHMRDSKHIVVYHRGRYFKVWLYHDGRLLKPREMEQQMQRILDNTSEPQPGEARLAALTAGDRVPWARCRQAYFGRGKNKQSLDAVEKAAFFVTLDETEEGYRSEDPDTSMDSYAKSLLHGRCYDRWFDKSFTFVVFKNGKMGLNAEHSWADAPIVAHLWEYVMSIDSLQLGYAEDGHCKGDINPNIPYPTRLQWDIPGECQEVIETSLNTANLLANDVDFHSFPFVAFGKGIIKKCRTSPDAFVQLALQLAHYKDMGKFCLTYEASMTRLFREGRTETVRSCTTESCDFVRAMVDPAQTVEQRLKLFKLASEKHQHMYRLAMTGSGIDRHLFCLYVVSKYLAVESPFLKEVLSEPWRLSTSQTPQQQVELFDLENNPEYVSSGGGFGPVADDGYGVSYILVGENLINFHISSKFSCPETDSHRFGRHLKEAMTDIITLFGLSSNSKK

Kd: 2.1 nM
Substance: L-FABP (from UniProt P07148)
